In the supplement of paper PMC10567573 one finds protein stability index data, which are given here for 52 sequences.

± gives the standard deviation.

This series in a line: protein stability index of a GFP-peptide fusion (GPS, HEK-293T) (PSI 1-6); higher = more stable. The following applies: c terminus: a fixed tail appended.
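Note: 24-mer peptide tiles fused after GFP, lentivirally expressed, FACS-sorted into six equal bins by GFP/DsRed ratio, decoded by Illumina sequencing, PSI is the read-weighted mean bin number.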

Take KTYHYLYLAMLERFQDGDNILEKE [FEM1B]: the protein stability index runs as follows: (treatment: DMSO) 2.03 ± 0.37; (treatment: MLN4924 1 uM, 8 h) 2.35 ± 0.2.

For the sequence KVLFALCALNALTTTVCLVAAALR [FAM189A2], the protein stability index runs as follows: (treatment: DMSO) 3.13 ± 0.6; (treatment: MLN4924 1 uM, 8 h) 3.3 ± 0.21.

For the sequence KYKSFNRTAMPYGGYEKASKRMTF [MYOZ1], the protein stability index was 2.34 ± 0.31 (treatment: DMSO) and 2.57 ± 0.24 (treatment: MLN4924 1 uM, 8 h).

As to KYSFLQFDPAPRRGEPHVTRRTPD [PPP2CA], the protein stability index (treatment: DMSO) was 4.04 ± 0.27 and the protein stability index (treatment: MLN4924 1 uM, 8 h) was found to be 3.85 ± 0.19.

LAARVIVNHRIYYKGHIPEKLETF [FEM1C]: the protein stability index runs as follows: (treatment: DMSO) 2.82 ± 0.99; (treatment: MLN4924 1 uM, 8 h) 2.47 ± 0.52.

As to LAATQGLAHMIAECKKLFQVPEEM [DLC1], the protein stability index is 2.52 ± 0.33 (treatment: DMSO) and 2.47 ± 0.37 (treatment: MLN4924 1 uM, 8 h).

Turning to LAFVIVLLAHRLRRWHKSRLLQAS [PCDHGA10], the protein stability index was 2.15 ± 0.48 (treatment: DMSO) and 2.21 ± 0.38 (treatment: MLN4924 1 uM, 8 h).

Consider LAGGKLILSLEGGYNLRALAEGVS [HDAC6], for which the protein stability index is, setting by setting: (treatment: DMSO) 2.99 ± 0.76; (treatment: MLN4924 1 uM, 8 h) 2.31 ± 0.47.

For LAPDFDRWLDESDAEMELRAKEEE [HACD3], the protein stability index worked out at 5.52 ± 0.12 (treatment: DMSO) and 5.45 ± 0.21 (treatment: MLN4924 1 uM, 8 h).

Consider LAQRTQQDSTRTVGERLQDTHSWK [TEKT4], for which the protein stability index by setting is: (treatment: DMSO) 4.42 ± 0.6; (treatment: MLN4924 1 uM, 8 h) 4.64 ± 0.21.

For LASDKTSAGNAPLNEEINIASSDS [C18orf25], the protein stability index reads like this: (treatment: DMSO) 5.48 ± 0.17; (treatment: MLN4924 1 uM, 8 h) 5.46 ± 0.16.

LATSPITVGDLGIVRRRSRDVPES [YJU2B]: the protein stability index (treatment: DMSO) was found to be 4.42 ± 0.12 and the protein stability index (treatment: MLN4924 1 uM, 8 h) worked out at 4.42 ± 0.2.

LCPLCGKNFSNNSNLIRHQRIHAA [ZNF263] returned a protein stability index (treatment: DMSO) of 3.97 ± 0.5 and a protein stability index (treatment: MLN4924 1 uM, 8 h) of 4.12 ± 0.47.

With LDPHFVPTELWPQEAVPLGLGLED [TEX19], the protein stability index by setting is: (treatment: DMSO) 5.13 ± 0.3; (treatment: MLN4924 1 uM, 8 h) 4.91 ± 0.17.

Regarding LEESDIDRDGTINLSEFQHVISRS [CIB1], the protein stability index by setting is: (treatment: DMSO) 4.69 ± 0.24; (treatment: MLN4924 1 uM, 8 h) 4.75 ± 0.084.

LEFRKSMYEEEINETRRKHETRLV [LMNB1]: the protein stability index was 4.02 ± 0.21 (treatment: DMSO) and 4.06 ± 0.25 (treatment: MLN4924 1 uM, 8 h).

Consider LELLLDASALTLVLGGRRLRRAWF [SCNN1D], for which the protein stability index (treatment: DMSO) was 2.94 ± 0.81 and the protein stability index (treatment: MLN4924 1 uM, 8 h) was determined as 2.4 ± 0.58.

For LERQNQEYQVLLDVKARLEGEIAT [KRT36], the protein stability index came out at 3.93 ± 0.077 (treatment: DMSO) and 4.02 ± 0.2 (treatment: MLN4924 1 uM, 8 h).

In the case of LESLRTAQKTALLQDGRRKVHYLF [DPCD], the protein stability index by setting is: (treatment: DMSO) 2.19 ± 0.22; (treatment: MLN4924 1 uM, 8 h) 2.45 ± 0.37.

Turning to LESSEELLETANQTLQAMDSEDFP [FSD1], the protein stability index runs as follows: (treatment: DMSO) 5.4 ± 0.19; (treatment: MLN4924 1 uM, 8 h) 5.57 ± 0.1.

Turning to LETMARNEVIADINCKGRSKSNLG [OSBPL1A], the protein stability index by setting is: (treatment: DMSO) 4.46 ± 0.39; (treatment: MLN4924 1 uM, 8 h) 4.38 ± 0.39.

Take LFAIANGFSPSYEFFAVTRFLVGM [SLC22A15]: the protein stability index is 3.06 ± 0.34 (treatment: DMSO) and 2.57 ± 1.3 (treatment: MLN4924 1 uM, 8 h).

Take LFDMCGISEAQLKDRETSKVIYDF [WASL]: the protein stability index was found to be 2.58 ± 0.16 (treatment: DMSO) and 2.7 ± 0.3 (treatment: MLN4924 1 uM, 8 h).

On to LFFPVIYDVKYLMKSCKNLKGGLQ [CNOT7], for which the protein stability index reads like this: (treatment: DMSO) 2.72 ± 0.35; (treatment: MLN4924 1 uM, 8 h) 2.5 ± 0.28.

In turn, LFGDAFAASPGEAPAASEGAAAPA [SNAP91] came in with a protein stability index (treatment: DMSO) of 5.07 ± 0.3 and a protein stability index (treatment: MLN4924 1 uM, 8 h) of 5.15 ± 0.15.

On to LFPQWHLPIKIAAIIASLTFLYTL [STEAP1], for which the protein stability index turned out to be 3.39 ± 0.8 (treatment: DMSO) and 3.13 ± 0.48 (treatment: MLN4924 1 uM, 8 h).

For LGEEWSLHKIYLCQSGYFSSMFSG [GMCL1], the protein stability index (treatment: DMSO) was 2.72 ± 1.1 and the protein stability index (treatment: MLN4924 1 uM, 8 h) was found to be 3.4 ± 0.97.

Take LGETPENSNLEEPLNPKPHKKKSP [ZNF449]: the protein stability index is 5.41 ± 0.38 (treatment: DMSO) and 5.47 ± 0.12 (treatment: MLN4924 1 uM, 8 h).

Take LGGEQAEEKAFESVIEPVQESSFR [MIA2]: the protein stability index by setting is: (treatment: DMSO) 5.16 ± 0.54; (treatment: MLN4924 1 uM, 8 h) 5.44 ± 0.1.

For the sequence LGLGTRESHSCPQQVPMPPGQEAQ [NEK8], the protein stability index is, setting by setting: (treatment: DMSO) 4.98 ± 0.19; (treatment: MLN4924 1 uM, 8 h) 4.87 ± 0.097.

For LGPCVVGYGIYYFIYSTWKGRTIY [SAT2], the protein stability index was determined as 2.97 ± 0.28 (treatment: DMSO) and 2.97 ± 0.51 (treatment: MLN4924 1 uM, 8 h).

LHEALQDYEAGQHMEDPRRAGKML [ESRRG]: the protein stability index runs as follows: (treatment: DMSO) 4.74 ± 0.29; (treatment: MLN4924 1 uM, 8 h) 4.68 ± 0.38.

Consider LHRESSNFDSIYICPSTFACAQLA [HDAC6], for which the protein stability index (treatment: DMSO) is 2.15 ± 0.46 and the protein stability index (treatment: MLN4924 1 uM, 8 h) amounted to 2.11 ± 0.16.

Take LHYFPFFLMGRVLYFHHYFPAMLF [POMT2]: the protein stability index came out at 3.09 ± 0.93 (treatment: DMSO) and 2.58 ± 0.52 (treatment: MLN4924 1 uM, 8 h).

In the case of LIKLGLERFHGVGILGFNSAEWFI [ACSBG2], the protein stability index (treatment: DMSO) amounted to 1.91 ± 0.25 and the protein stability index (treatment: MLN4924 1 uM, 8 h) was determined as 2.13 ± 0.65.

For the sequence LINHKKAEDTEKKDEPSKYNQQQA [CEP70], the protein stability index (treatment: DMSO) came to 5.4 ± 0.21 and the protein stability index (treatment: MLN4924 1 uM, 8 h) turned out to be 5.26 ± 0.38.

Turning to LIQHQRIHKGEKPYQCSQCSKSYS [ZSCAN9], the protein stability index stood at 2.89 ± 0.3 (treatment: DMSO) and 3.26 ± 0.26 (treatment: MLN4924 1 uM, 8 h).

As to LKPLCGCHSFAAAADGPTVCCNPY [SMAD6], the protein stability index is, setting by setting: (treatment: DMSO) 2.75 ± 0.5; (treatment: MLN4924 1 uM, 8 h) 2.92 ± 0.39.

Take LKYENDYPSVILRDPLQTDTLQND [ETS1]: the protein stability index by setting is: (treatment: DMSO) 4.2 ± 0.31; (treatment: MLN4924 1 uM, 8 h) 4.53 ± 0.34.

LLFSDKNVNSNLITWNRVVLLHGP [TRIP13]: the protein stability index runs as follows: (treatment: DMSO) 2.91 ± 0.79; (treatment: MLN4924 1 uM, 8 h) 2.28 ± 0.53.

For the sequence LLGRERDRVQVERDGLAEDLAALK [PRPH], the protein stability index stood at 4.2 ± 0.26 (treatment: DMSO) and 4.37 ± 0.18 (treatment: MLN4924 1 uM, 8 h).

Sequence LLPDGRHAVVEVEDVPLAAKLVDL [TAF7L] registered a protein stability index (treatment: DMSO) of 4.28 ± 0.3 and a protein stability index (treatment: MLN4924 1 uM, 8 h) of 4.22 ± 0.18.

Regarding LLQADREHLPVKPDTMEKLRTHID [DENND6A], the protein stability index reads like this: (treatment: DMSO) 3.86 ± 0.36; (treatment: MLN4924 1 uM, 8 h) 3.92 ± 0.12.

As to LLSIGPELPKPEVISQLEQGTELW [ZNF8], the protein stability index (treatment: DMSO) was found to be 4.19 ± 0.28 and the protein stability index (treatment: MLN4924 1 uM, 8 h) came to 3.54 ± 0.099.

As to LMRHGMEKIWRPNRVFSLQDLCCR [RAB40C], the protein stability index stood at 2.74 ± 0.14 (treatment: DMSO) and 2.71 ± 0.27 (treatment: MLN4924 1 uM, 8 h).

Take LNFKAEPESETSILLSWTPPRSDT [PTPRD]: the protein stability index was found to be 3.3 ± 0.36 (treatment: DMSO) and 3.45 ± 0.28 (treatment: MLN4924 1 uM, 8 h).

Take LNKPALQAQPLRTTSTLASSLPGH [EHMT1]: the protein stability index runs as follows: (treatment: DMSO) 3.81 ± 0.14; (treatment: MLN4924 1 uM, 8 h) 3.91 ± 0.28.

As for LNQGSVFQEYDTDCEVFRQRFRQF [ZNF449], the protein stability index by setting is: (treatment: DMSO) 2.98 ± 0.27; (treatment: MLN4924 1 uM, 8 h) 3.19 ± 0.12.

Consider LPGLAGPSGEMVKSTTSLTSSSTS [MLH1], for which the protein stability index reads like this: (treatment: DMSO) 4.83 ± 0.17; (treatment: MLN4924 1 uM, 8 h) 4.82 ± 0.058.

Take LPLLRQTAGKVLAHFYGVKLEGKV [ESRRA]: the protein stability index runs as follows: (treatment: DMSO) 2.26 ± 0.31; (treatment: MLN4924 1 uM, 8 h) 2.11 ± 0.18.

Regarding LPNTLLRKDKDVARLQDFQELELV [ANKRD40], the protein stability index stood at 3.76 ± 0.11 (treatment: DMSO) and 3.66 ± 0.29 (treatment: MLN4924 1 uM, 8 h).

With LPREEEIVFPEKLNGSVLPGSGAP [ADAMTS4], the protein stability index was determined as 4.49 ± 0.45 (treatment: DMSO) and 4.63 ± 0.46 (treatment: MLN4924 1 uM, 8 h).
